In the nanobody polyreactivity screen of Harvey et al. (2022):

Assay: yeast display, Sf9 membrane polyspecificity reagent, FACS + sequencing; frameworks hold sequencing errors
Procedure, shortened: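 Using colony PCR, genes from sorted yeast display clones were amplified, then sequenced on MiSeq at 2 × 250 and filtered by CDR length. The clones had been stained with 10% biotinylated, detergent-solubilized Sf9 membrane reagent for 1 hour at 4 °C and sorted by FACS into low and high (top ~1%) gates on anti-HA and streptavidin fluorescence. Polyreactivity labels come from the gate of origin.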

Row | Sequence | polyreactivity (PSR sort gate)
1 | QVQLVESGGGLVQAGGSLRLSCAASGSIFYPYAMGWYRQAPGKERELVAAISYNGGSTYYADSVKGRFTISRDNAKNTVYLQMNSLKPEETAVYYCAARPYHGKLDYWGQGTQVTVSS | low polyreactivity
2 | QVQLVESGGGLVQAGGSLRLSCAASGSIFYPYAMGWYRQAPGKERELVAVINDTGSTYYADSVKGRFTISRDNAKNTVYLQMNSLKPEETAVYYCNTATYVDSFPDPGDHWGQGTQVTVSS | low polyreactivity
3 | QVQLVESGGGLVQAGGSLRLSCAASGSIFYPYVMGWYIQAPGKESELVASISRRGGRTYYADSVKGRFTISRDYAKNTVYLEMNSLKPEDTAVYYCAKRTYDSFYGYYYWGQVTQVTVSS | high polyreactivity
4 | QVQLVESGGGLVQAGGSLRLSCAASGSIFYQNVMGGYRQAPGKERELVAAISSSGDSTYYADSVKGRFTISRDNAKNTVYLQMNSLKPEDTAVYYCAAEPEYVSGPYDYWGQGTQVTVSS | low polyreactivity
5 | QVQLVESGGGLVQAGGSLRLSCAASGSIFYQYAMGWYRQAPGKERELVAAISQNGGRTYYADSVKGRFTISRDNAKNKVYLQMNRLKPEDTAVYYFAARHAPTRYGYWGQGTEVTVSS | high polyreactivity
6 | QVQLVESGGGLVQAGGSLRLSCAASGSIFYRNAMGGYRQAPGKERELVAAIAGTGGSTYYADSVKGRFTISRDNAKNTVYLQMNSLKPEDTAVYYCASGVTYRHDYWRQGTQVTVSS | high polyreactivity
7 | QVQLVESGGGLVQAGGSLRLSCAASGSIFYRNAMGWYRQAPGKERELVAAISSDGSTNYADSVKGRFTISRDNAKNTVYLQMNSLKPEDTAVYYCNVPYYLPSYLSGYDYWGQGTQVTVSS | low polyreactivity
8 | QVQLVESGGGLVQAGGSLRLSCAASGSIFYRNAMGWYRQAPGKERELVAAITSSGGSTYYADSVKGRFTISRDNAKNTVYLQMNSLKPEDTAVYYCATRGWSKQLYGGYTQYYYWGQGTQVTVSS | high polyreactivity
9 | QVQLVESGGGLVQAGGSLRLSCAASGSIFYRNAMGWYRQAPGKERELVAAITSSGGSTYYADSVKGRFTISRDNAKYTVYFQMNSLKPEDTAVYYCNSVVTKFAKCRFLYYYWGQGTQVTVSS | high polyreactivity
10 | QVQLVESGGGLVQAGGSLRLSCAASGSIFYRNAMGWYRQAPGKERELVAVITRRGGRTYYADSVKGRFTISRDNAKNTVDLQMNSLKPEDTAVYYCNADTANYADGLDYWGQGTQVTVSS | low polyreactivity
11 | QVQLVESGGGLVQAGGSLRLSCAASGSIFYRNTMGWYRQAPGKERELVAAITSGGGTNYADSVKGRFTISRDNAKNTVYLQMNSLKPEDTAVYYCAASRQYTVGFYSWGQGTQVTVSS | high polyreactivity
12 | QVQLVESGGGLVQAGGSLRLSCAASGSIFYRNTMGWYRQAPVKERELVAAITSSGDSTYYADSVKGRFTISRDNAKNTVYFQMNSLKPEDTAVYYCAKDQHDFLEALYDSWGQGTQVTVSS | low polyreactivity
13 | QVQLVESGGGLVQAGGSLRLSCAASGSIFYRNVMGWYRQAPGKERELVAAISWSGGSTYYADSVKGRFTISRDKSKNTVYLQMNSLKPEDTAVYYCAADIPKTCYPYAFEYWGQGTQVTVSS | low polyreactivity
14 | QVQLVESGGGLVQAGGSLRLSCAASGSIFYRYAMGWYRQAPGKERELVAAIRSRTGRTYYADSVKGRFTISRDNAKNTVYLQMNCLNPEDTAVYYCAADKYFSARFDYWGQGTQVTVSS | high polyreactivity
15 | QVQLVESGGGLVQAGGSLRLSCAASGSIFYRYAMGWYRQAPGKERELVAAISFRTGSTYYADSVKGRFTISRDNAKNTVYFQMNSLKPEDTAVYYCAAEQLSTLRQRFDSWGQGTQVTVSS | high polyreactivity
16 | QVQLVESGGGLVQAGGSLRLSCAASGSIFYRYAMGWYRQAPGKERELVAAISYSGGSTYYADSVKGRFTISRDNAKNTVYLQMNSQKPEDTAVYYCAKDYPPPISDYSRYYGYGYWGKGTQVTVSS | low polyreactivity
17 | QVQLVESGGGLVQAGGSLRLSCAASGSIFYRYAMGWYRQAPGKERELVATIRSGGSTNYADSVKGRFTISRDNAKNTVYLQMKSLKPEDTAVYYCAAVTPETQPDSGPVPPMDSWGQGTQVTVSS | low polyreactivity
